Molecular target: HCMV pentameric complex gH/gL/pUL128/pUL130/pUL131A (wild type Pentamer) (HCMV strain Merlin) (UniProt Q6SW67)
Assay: method not stated

## 8I21 with HCDR3 Trp105 mutated to alanine (Fab)
  fold decrease in binding affinity (against unmutated 8I21): > 150 fold

Reference: patent publication US20210277067A1
